# B1: FhHDM-1: 90-residue polypeptide from F. hepatica, Helminth Defense Molecule-1 (SEQ ID NO:24); recombinant form minus N-terminal signal peptide, expressed in E. coli (protein, listed as Fasciola hepatica)
# chain: MRFIVLLCLAEVLLAAYVEARPSEESREKLRESGRKMVKALRDAVTKAYEKARDRAMAYLAKDNLGEKITEVITILLNRLTDRLEKYAGN
# How the values were obtained:
# [1] = tested on: primary human macrophages; test: Proteomics analysis of treated macrophages; format: cell-based
# Text: FIG. 11 is a diagrammatic representation showing a Venn diagram of soluble proteins identified in primary human macrophages.
# RAW macrophages = test: ATP induced macrophage cell death (LDH release); format: cell-based, murine; conditions: 20 μg/mL pre-treatment 1 h, then ATP 5 mM 2 h
# Method: FIG. 16 is a graphical representation showing that FhHDM-1 P3 prevents ATP induced cell death in RAW macrophages. RAW macrophages were pretreated with either FhHDM-1 (20 μg/mL) or FhHDM-1 p3 (20 μg/mL) for 1 h, then washed and cultured in the presence of ATP (5 mM) for 2 h. Cell death (% cytotoxicity) was quantified according to the amount of LDH released by the cells into culture media.
# Raw macrophages were pre-treated with either HDM (20 μg/mL) or FhHDM-1 P3 (20 μg/mL) for 1 h, washed and then cultured in the presence of ATP (5 mM) for 2 h. The culture supernatants were collected and assayed for LDH activity with an LDH release kit. The amount of LDH release by cells treated with ATP only was used to represent 100% cytotoxicity.
# [2] = of 237 proteins present in both samples
molecule,measurement,setting,value
B1,lysosomal proteins of primary macrophages,[1],down-regulates
same,number of proteins down-regulated following treatment,[1]; [2],44
same,number of proteins up-regulated following treatment,[1]; [2],42
same,KEGG pathways in primary human macrophages (Table 5),[1]; proteomic analysis,down-regulated
same,number of proteins uniquely expressed in the treated sample,[1]; versus PBS-treated sample,6
same,LDH release induced by ATP (cytotoxicity of ATP),RAW macrophages,no significant effect

# Source: patent publication US11311610B2, “Immune-modulating agents and uses therefor” (UNIVERSITY OF TECHNOLOGY SYDNEY, priority 2010, dated 2022)
